Data published in US20100311820, “NUCLEIC ACID MODULATORS OF GLYCOPROTEIN VI” (Regado Biosciences, Inc, published 2010).

Molecular target: T1, Glycoprotein VI extracellular domain (Gln21-Lys267) (Homo sapiens, UniProt Q9HCN6 SEQ:1-247)
T1 chain: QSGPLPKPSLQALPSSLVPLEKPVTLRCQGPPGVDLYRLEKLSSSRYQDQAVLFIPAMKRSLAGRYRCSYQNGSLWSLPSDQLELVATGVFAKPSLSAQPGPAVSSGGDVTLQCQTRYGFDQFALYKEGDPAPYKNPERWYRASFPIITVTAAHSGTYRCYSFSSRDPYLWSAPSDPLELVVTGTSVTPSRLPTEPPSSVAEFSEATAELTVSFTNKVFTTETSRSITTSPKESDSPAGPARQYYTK
Assay: filter; binding comparable with and without annealed 3' primer
Conditions: tags: C-terminal His6; R&D Systems 3627-GP; label: 5'-32P; 3' fixed region paired with DNA primer
Experimental: The reaction was phenol:chloroform:isoamyl alcohol (25:24:1) extracted, chloroform: isoamyl:alcohol (24:1) extracted, and ethanol precipitated. Three pmoles of dephosphorylated RNA was end labeled with T4 Poylnucleotide Kinase with supplied buffer, and 20 μCi of γ-P³²-ATP and subsequently cleaned with a Biorad MicroBio Spin P-30 spin column. End-labeled RNA was diluted to a final concentration of 2000 cpm/μL and heat denatured at 65° C. for 5 minutes. RNA and GPVI dilutions were equilibrated at 37° C. prior to use. RNA (5 μL) was added to varying concentrations of GPVI (15 μL) at 37° C. and incubated together for 5 to 15 minutes. The complexed RNA/GPVI protein mixture was then loaded over a Protean BA85 nitrocellulose membrane, overlayed on a Genescreen Plus Nylon membrane, in a 96 well vacuum manifold system with washing. The membranes were exposed to a phosphorimager screen, scanned, and quantitated with a Molecular Dynamics Storm 840 Phosphorimager. The fraction bound was calculated by dividing the counts on the nitrocellulose by the total counts and adjusting for the background. Results for binding of enriched ligand libraries from round 10 E2 and round 10 EF of the SELEX as compared to the GPVI-naïve starting ligand library are shown in FIG. 3. […]

B1: EF-3 annealed to 3' DNA primer (mixed)
RNA: GGGAGGACGAUGCGGAUCACACCGCGUCUUGCGUAAGCCUCCUACUAACGGAUCGCAGACGACUCGCUGAGGAUCCGAGA
DNA: TCTCGGATCCTCAGCGAGTCGTCTG
modifications: RNA strand 2'-F C and U; 2'-OH A and G
- binding result: binds
